This is an account of results in the supplement of paper PMC7877785.

± gives the uncertainty stated by the source.

A short description of the data set: self-splicing fitness, log relative to wild type (ln ratio); higher = more splicing; Tetrahymena group I intron in knt gene, E. coli kanamycin selection, DiMSum; sequences stand for … in CUCUCU…GGAGGGAAAAGUUAUCAGGCAUGCACCUGGUAGCUAGUCUUUAAACCAAUAGAUUGCAUCGGUUUAAAAGGCAAGACCGUCAAAUUGCGGGAAAGGGGUCAACAGCCGUUCAGUACCAAGUCUCAGGGGAAACUUUGAGAUGGCCUUGCAAAGGGUAUGGUAAUAAGCUGACGGACAUGGUCCUAACCACGCAGCCAAGUCCUAAGUCAACAGAUCUUCUGUUGAUAUGGAUGCAGUUCACAGACUAAAUGUCGGUCGGGGAAGAUGUAUUCUUCUCAUAAGAUAUAGUCGGACCUCUCCUUAAUGGGAGCUAGCGGAUGAAGUGAUGCAACACUGGAGCCGCUGGGAACUAAUUUGUAUGCGAAAGUAUAUUGAUUAGUUUUGGAGUACUCGUGGUCG
A digest of the protocol:
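The eight P1ex-region nucleotides of an intron in the knt kanamycin-resistance gene on pET-22b(+) were all randomised and the library put into E. coli BL21(DE3). Six replicate transformations were grown overnight at 37°C or 30°C on LB agar with or without 25 μg/mL kanamycin, together with 100 μg/mL carbenicillin, 50 μM IPTG and 0.2% rhamnose. Colonies were pooled and amplicon-sequenced on an Illumina HiSeq 2500. Fitness from DiMSum is the error-weighted combination of wild-type-normalised replicate fold changes, kanamycin over none.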

As to GAGAAGCAAUAUUACGCCCU, the “self-splicing fitness (ln)” value (30 °C) is -0.493 ± 0.16 and the “self-splicing fitness (ln)” value (37 °C) worked out at 0.146 ± 0.18.

Consider AUGUAGCAAUAUUACGAUCG, for which the “self-splicing fitness (ln)” value is -2.2 ± 0.15 (30 °C) and -1.12 ± 0.2 (37 °C). In the case of UUUAAGCAAUAUUACGGCAA, the “self-splicing fitness (ln)” value is, setting by setting: (30 °C) -0.171 ± 0.093; (37 °C) 0.00377 ± 0.11. For UUGAAGCAAUAUUACGCAAG, the “self-splicing fitness (ln)” value was -0.402 ± 0.099 (30 °C) and 0.251 ± 0.12 (37 °C). Take UUGGAGCAAUAUUACGUGCC: the “self-splicing fitness (ln)” value was -3.24 ± 0.32 (30 °C) and -2.74 ± 0.36 (37 °C).

Take UUGUAGCAAUAUUACGUCUC: the “self-splicing fitness (ln)” value reads like this: (30 °C) -3.54 ± 0.17; (37 °C) -1.75 ± 0.18.

Take GAAGAGCAAUAUUACGAAGC: the “self-splicing fitness (ln)” value is, setting by setting: (30 °C) -3.81 ± 0.46; (37 °C) -0.865 ± 0.3.

With CCGAAGCAAUAUUACGGCAC, the “self-splicing fitness (ln)” value runs as follows: (30 °C) -4.15 ± 0.31; (37 °C) -2.37 ± 0.33. Taken in the same sequence, the figures for GACCAGCAAUAUUACGUCGG were -2.79 ± 0.21 and -1.98 ± 0.28. For UUUCAGCAAUAUUACGUAAG, the “self-splicing fitness (ln)” value is, setting by setting: (30 °C) -0.33 ± 0.087; (37 °C) 0.394 ± 0.13. Taken in the same sequence, the figures for UCACAGCAAUAUUACGGCAC were -2.93 ± 0.27 and -2.49 ± 0.31. Taken in the same sequence, the figures for GGCUAGCAAUAUUACGAAGA were -2.05 ± 0.43 and -0.778 ± 0.36.

For the sequence CAUGAGCAAUAUUACGAAAA, the “self-splicing fitness (ln)” value was -3.45 ± 0.34 (30 °C) and -1.22 ± 0.2 (37 °C). On to CCUCAGCAAUAUUACGUGUU, for which the “self-splicing fitness (ln)” value was -4.12 ± 0.2 (30 °C) and -3.41 ± 0.25 (37 °C). As to GCCGAGCAAUAUUACGAAUC, the “self-splicing fitness (ln)” value is -1.68 ± 0.11 (30 °C) and -0.92 ± 0.12 (37 °C).

Take AGUCAGCAAUAUUACGUUCG: the “self-splicing fitness (ln)” value is -1.9 ± 0.13 (30 °C) and -1.46 ± 0.15 (37 °C). The corresponding values for CUGGAGCAAUAUUACGUACG are -0.531 ± 0.089 and 0.504 ± 0.12. Taken in the same sequence, the figures for UGUAAGCAAUAUUACGGGGG were -3.46 ± 0.22 and -1.88 ± 0.21. On to GUUUAGCAAUAUUACGACAG, for which the “self-splicing fitness (ln)” value is, setting by setting: (30 °C) -3.68 ± 0.32; (37 °C) -2.43 ± 0.34. With CCUCAGCAAUAUUACGUGGU, the “self-splicing fitness (ln)” value was -3.93 ± 0.11 (30 °C) and -2.5 ± 0.13 (37 °C). CCGAAGCAAUAUUACGUUGU: the “self-splicing fitness (ln)” value (30 °C) was -4.15 ± 0.32 and the “self-splicing fitness (ln)” value (37 °C) was -3.37 ± 0.24. The corresponding values for GGGGAGCAAUAUUACGUGGC are -3.07 ± 0.48 and -1.12 ± 0.47. Turning to GCGGAGCAAUAUUACGAACC, the “self-splicing fitness (ln)” value (30 °C) is -1.32 ± 0.35.

In the case of UUAUAGCAAUAUUACGGGCA, the “self-splicing fitness (ln)” value runs as follows: (30 °C) -2.37 ± 0.18; (37 °C) -1.32 ± 0.19.

As for GUUCAGCAAUAUUACGCACA, the “self-splicing fitness (ln)” value reads like this: (30 °C) 1.48 ± 0.34; (37 °C) -1.71 ± 0.49.

For the sequence AACCAGCAAUAUUACGGAUC, the “self-splicing fitness (ln)” value runs as follows: (30 °C) -2.84 ± 0.11; (37 °C) -1.48 ± 0.1. With CCUUAGCAAUAUUACGCGCU, the “self-splicing fitness (ln)” value was -3.13 ± 0.32 (30 °C) and -3.41 ± 0.42 (37 °C).

As for CGACAGCAAUAUUACGUUAA, the “self-splicing fitness (ln)” value is -3.04 ± 0.22 (30 °C) and -2.19 ± 0.18 (37 °C). Taken in the same sequence, the figures for CAGUAGCAAUAUUACGACAG were -0.798 ± 0.093 and -0.214 ± 0.12. On to AGCCAGCAAUAUUACGUGUU, for which the “self-splicing fitness (ln)” value was -3.62 ± 0.11 (30 °C) and -1.56 ± 0.087 (37 °C).

With UCUUAGCAAUAUUACGUAGG, the “self-splicing fitness (ln)” value runs as follows: (30 °C) -1.26 ± 0.11; (37 °C) 0.0819 ± 0.16. With CCAUAGCAAUAUUACGCUCC, the “self-splicing fitness (ln)” value (30 °C) was -2.97 ± 0.49. Turning to AAAAAGCAAUAUUACGCCUC, the “self-splicing fitness (ln)” value (37 °C) is -1.18 ± 0.22.

As to AGACAGCAAUAUUACGCGUU, the “self-splicing fitness (ln)” value by setting is: (30 °C) -3.47 ± 0.16; (37 °C) -2.11 ± 0.14. The corresponding values for CCUCAGCAAUAUUACGGGAU are -4.21 ± 0.2 and -2.55 ± 0.17. Take GUGGAGCAAUAUUACGUACU: the “self-splicing fitness (ln)” value (30 °C) is -2.19 ± 0.37 and the “self-splicing fitness (ln)” value (37 °C) is -2.2 ± 0.32. Taken in the same sequence, the figures for GCGAAGCAAUAUUACGGCCG were -1.71 ± 0.29 and -1.34 ± 0.37. The corresponding values for GCCGAGCAAUAUUACGCUGC are -4.22 ± 0.36 and -2.81 ± 0.25. Taken in the same sequence, the figures for ACGUAGCAAUAUUACGCUUG were -1.26 ± 0.083 and -1.28 ± 0.093. Consider AAUAAGCAAUAUUACGCUGC, for which the “self-splicing fitness (ln)” value is -3.69 ± 0.3 (30 °C) and -2.67 ± 0.38 (37 °C). As to CUCUAGCAAUAUUACGCGUU, the “self-splicing fitness (ln)” value (37 °C) was -2.14 ± 0.18.

As to CCCGAGCAAUAUUACGGUAA, the “self-splicing fitness (ln)” value is -3.81 ± 0.26 (30 °C) and -1.46 ± 0.16 (37 °C). Consider CCCCAGCAAUAUUACGGGAC, for which the “self-splicing fitness (ln)” value was -3.88 ± 0.18 (30 °C) and -2.12 ± 0.14 (37 °C).

For the sequence GGGCAGCAAUAUUACGUGAG, the “self-splicing fitness (ln)” value was -0.483 ± 0.085 (30 °C) and -0.435 ± 0.1 (37 °C).

On to AUCAAGCAAUAUUACGCCCA, for which the “self-splicing fitness (ln)” value is, setting by setting: (30 °C) -0.266 ± 0.15; (37 °C) 0.0648 ± 0.2. Taken in the same sequence, the figures for GUAUAGCAAUAUUACGCGGG were -3.7 ± 0.27 and -2.23 ± 0.26. Consider AGUUAGCAAUAUUACGCCGA, for which the “self-splicing fitness (ln)” value is, setting by setting: (30 °C) -2.78 ± 0.46; (37 °C) -1.71 ± 0.39.

For UGGCAGCAAUAUUACGCACC, the “self-splicing fitness (ln)” value is, setting by setting: (30 °C) -2.36 ± 0.22; (37 °C) -1.37 ± 0.25. Take GUCGAGCAAUAUUACGUCGG: where the note is “37 °C”, the “self-splicing fitness (ln)” value was -2.34 ± 0.22.

UCCUAGCAAUAUUACGCCAC: the “self-splicing fitness (ln)” value is -1.72 ± 0.28 (30 °C) and -1.15 ± 0.27 (37 °C).

As to CCAAAGCAAUAUUACGGCGU, the “self-splicing fitness (ln)” value is -3.49 ± 0.12 (30 °C) and -2.62 ± 0.14 (37 °C). The corresponding values for AGCGAGCAAUAUUACGUAUU are -3.54 ± 0.17 and -1.79 ± 0.16.

As to AUAUAGCAAUAUUACGUCCC, the “self-splicing fitness (ln)” value reads like this: (30 °C) -1.01 ± 0.17; (37 °C) 0.139 ± 0.32. The corresponding values for GGGCAGCAAUAUUACGUAUC are -0.951 ± 0.068 and -0.0249 ± 0.1. In the case of CUUGAGCAAUAUUACGCCGG, the “self-splicing fitness (ln)” value was -4.04 ± 0.46 (30 °C) and -1.65 ± 0.47 (37 °C). Taken in the same sequence, the figures for UCAUAGCAAUAUUACGAACG were -0.967 ± 0.085 and -0.602 ± 0.12. For ACGGAGCAAUAUUACGACUU, the “self-splicing fitness (ln)” value (30 °C) was -2.69 ± 0.1 and the “self-splicing fitness (ln)” value (37 °C) was -1.37 ± 0.11. As for AUCCAGCAAUAUUACGCGGA, the “self-splicing fitness (ln)” value was -3.7 ± 0.25 (30 °C) and -2.5 ± 0.17 (37 °C). Taken in the same sequence, the figures for UAUCAGCAAUAUUACGCGAC were -3.07 ± 0.37 and -2.3 ± 0.33. As to CGGCAGCAAUAUUACGUUGU, the “self-splicing fitness (ln)” value (30 °C) is -2.18 ± 0.11 and the “self-splicing fitness (ln)” value (37 °C) was -2.68 ± 0.19. On to UUCGAGCAAUAUUACGAACU, for which the “self-splicing fitness (ln)” value is -3.28 ± 0.32 (30 °C) and -0.827 ± 0.44 (37 °C). Turning to UUAAAGCAAUAUUACGGGCC, the “self-splicing fitness (ln)” value is, setting by setting: (30 °C) -1.7 ± 0.21; (37 °C) -1.25 ± 0.28.

Consider GUGGAGCAAUAUUACGUUAA, for which the “self-splicing fitness (ln)” value runs as follows: (30 °C) -2.17 ± 0.19; (37 °C) -2.41 ± 0.26. Regarding ACACAGCAAUAUUACGAUGU, the “self-splicing fitness (ln)” value (30 °C) is -3.46 ± 0.1 and the “self-splicing fitness (ln)” value (37 °C) is -1.18 ± 0.08.

For the sequence CUACAGCAAUAUUACGGGGG, the “self-splicing fitness (ln)” value runs as follows: (30 °C) -3.39 ± 0.2; (37 °C) -2.26 ± 0.15. The corresponding values for GCUCAGCAAUAUUACGGAGG are -1.44 ± 0.08 and -0.504 ± 0.091. Taken in the same sequence, the figures for ACCAAGCAAUAUUACGGUGU were -3.43 ± 0.11 and -2.18 ± 0.11. With GGGCAGCAAUAUUACGUAAU, the “self-splicing fitness (ln)” value is, setting by setting: (30 °C) -0.917 ± 0.063; (37 °C) 0.209 ± 0.085. Take AGUCAGCAAUAUUACGGCUU: the “self-splicing fitness (ln)” value (37 °C) is -1.91 ± 0.29. As for ACGAAGCAAUAUUACGACGA, the “self-splicing fitness (ln)” value by setting is: (30 °C) -1.04 ± 0.097; (37 °C) -0.181 ± 0.12. AGACAGCAAUAUUACGAACC: the “self-splicing fitness (ln)” value is -0.535 ± 0.12 (30 °C) and -0.29 ± 0.19 (37 °C). Turning to CGCAAGCAAUAUUACGUGCC, the “self-splicing fitness (ln)” value was -0.772 ± 0.073 (30 °C) and -1.13 ± 0.11 (37 °C). The corresponding values for GCUUAGCAAUAUUACGUCAU are -2.19 ± 0.14 and -0.965 ± 0.12. With CUUAAGCAAUAUUACGGUCG, the “self-splicing fitness (ln)” value (30 °C) turned out to be 0.0331 ± 0.082 and the “self-splicing fitness (ln)” value (37 °C) came to 0.0238 ± 0.093.

On to UGAAAGCAAUAUUACGGUCC, for which the “self-splicing fitness (ln)” value runs as follows: (30 °C) -0.844 ± 0.072; (37 °C) -0.196 ± 0.095. Taken in the same sequence, the figures for UGUCAGCAAUAUUACGGUAA were -0.649 ± 0.087 and 0.294 ± 0.1.

Take CCUUAGCAAUAUUACGACUG: the “self-splicing fitness (ln)” value (30 °C) is -2.26 ± 0.12 and the “self-splicing fitness (ln)” value (37 °C) is -0.308 ± 0.096.
